Reference: paper PMC5603367 (Journal of controlled release : official journal of the …, 2017)
One block for each molecule: values may come before it.

What was measured:
[1] = biological target: leptin receptor (Mus musculus) (UniProt P48356); experiment: SPR; details: cited from earlier work
[2] = biological target: T1, Recombinant human leptin receptor-Fc chimera (human, UniProt P48357 22-839); experiment: SPR
T1 sequence (looked up): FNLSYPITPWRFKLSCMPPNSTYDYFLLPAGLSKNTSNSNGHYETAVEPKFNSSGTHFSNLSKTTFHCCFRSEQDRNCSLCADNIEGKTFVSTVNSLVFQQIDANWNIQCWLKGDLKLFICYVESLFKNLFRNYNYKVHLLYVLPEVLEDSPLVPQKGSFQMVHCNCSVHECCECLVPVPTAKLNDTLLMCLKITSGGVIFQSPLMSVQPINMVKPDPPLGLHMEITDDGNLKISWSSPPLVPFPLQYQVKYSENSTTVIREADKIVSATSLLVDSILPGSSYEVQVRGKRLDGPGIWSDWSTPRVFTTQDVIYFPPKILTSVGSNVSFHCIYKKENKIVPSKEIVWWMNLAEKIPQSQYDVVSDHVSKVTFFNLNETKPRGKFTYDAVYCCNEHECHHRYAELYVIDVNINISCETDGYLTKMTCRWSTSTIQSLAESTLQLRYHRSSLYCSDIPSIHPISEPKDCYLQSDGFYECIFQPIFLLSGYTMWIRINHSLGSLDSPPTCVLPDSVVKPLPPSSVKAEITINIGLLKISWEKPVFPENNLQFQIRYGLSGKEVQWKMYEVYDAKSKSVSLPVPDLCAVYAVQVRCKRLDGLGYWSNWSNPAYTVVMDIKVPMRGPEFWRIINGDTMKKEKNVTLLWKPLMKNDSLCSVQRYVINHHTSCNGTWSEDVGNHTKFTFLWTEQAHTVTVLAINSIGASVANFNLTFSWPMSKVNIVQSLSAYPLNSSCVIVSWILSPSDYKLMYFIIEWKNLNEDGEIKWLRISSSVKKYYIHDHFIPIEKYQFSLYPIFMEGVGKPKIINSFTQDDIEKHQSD

leptin receptor (Mus musculus), sequence (P48356 22-839): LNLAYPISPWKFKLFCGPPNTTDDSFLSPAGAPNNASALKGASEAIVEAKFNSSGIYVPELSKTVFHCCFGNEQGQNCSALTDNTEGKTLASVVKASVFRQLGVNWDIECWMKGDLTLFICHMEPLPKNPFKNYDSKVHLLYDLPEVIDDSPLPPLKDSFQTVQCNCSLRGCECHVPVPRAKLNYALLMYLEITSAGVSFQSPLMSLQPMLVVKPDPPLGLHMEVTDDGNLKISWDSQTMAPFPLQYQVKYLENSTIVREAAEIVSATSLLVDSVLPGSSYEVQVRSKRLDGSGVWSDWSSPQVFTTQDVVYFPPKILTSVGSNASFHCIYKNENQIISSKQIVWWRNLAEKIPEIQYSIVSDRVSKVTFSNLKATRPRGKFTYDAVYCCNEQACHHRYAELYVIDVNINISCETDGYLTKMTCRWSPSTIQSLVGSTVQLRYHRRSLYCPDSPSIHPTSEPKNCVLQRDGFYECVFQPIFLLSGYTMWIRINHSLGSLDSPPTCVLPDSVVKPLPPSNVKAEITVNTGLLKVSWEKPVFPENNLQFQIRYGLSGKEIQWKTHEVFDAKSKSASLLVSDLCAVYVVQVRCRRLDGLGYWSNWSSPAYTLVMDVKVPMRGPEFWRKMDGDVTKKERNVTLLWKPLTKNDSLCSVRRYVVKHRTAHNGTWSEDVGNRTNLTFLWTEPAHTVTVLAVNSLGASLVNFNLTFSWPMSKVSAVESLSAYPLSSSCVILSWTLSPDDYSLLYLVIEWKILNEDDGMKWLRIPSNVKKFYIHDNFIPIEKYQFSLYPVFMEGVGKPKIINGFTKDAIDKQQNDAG

Kd [2]: 0.089 nM
B1: Recombinant mouse leptin (ligand, UniProt P41160 22-167, looked up)
chain: VPIQKVQDDTKTLIKTIVTRINDISHTQSVSAKQRVTGLDFIPGLHPILSLSKMDQTLAVYQQVLTSLPSQNVLQIANDLENLRDLLHLLAFSKSCSLPQTSGLQKPESLDGVLEASLYSTEVVALSRLQGSLQDILQQLDVSPEC

Kd [2]: 0.28 nM
B2: Leptin N-terminal conjugate with poly(ethylene glycol) (LepNPEG5K), 1:1 conjugate (ligand, mouse, UniProt P41160 22-167, looked up)
chain: B1 chain
modifications: one chain of PEG (average molecular mass 5000 Da) on the N-terminal amine (reductive amination)

Second part, the molecule before the results:

Molecule: leptin (from UniProt P41160)
Kd [1]: 0.12 nM

B3: Leptin N-terminal conjugate with Pluronic P85 (LepNP85), 1:1 conjugate (ligand, mouse, UniProt P41160 22-167, looked up)
chain: B1 chain
modifications: one chain of Pluronic P85 on the N-terminal amine (reductive amination, secondary amine)
Kd [2]: 0.2 nM
